Data published in patent publication US20250276092A1 (Regeneron, published 2025).
Residue numbers refer to the chain shown, from its start.

B1: REGN16431 (bispecific antibody, human IgG4 S228P, kappa)
heavy 1: QLQLQESGPGLVRPSETLSLTCSVSGASMNTNNYYWGWIRQPPGKGLEWIGSGYYNGNTYYNPSLKSRVTISVDTSKNQFSLKLNSVTAADTAVYYCARQTPPRIIGSPNIWGQGTMVTVSSASTKGPSVFPLAPCSRSTSESTAALGCLVKDYFPEPVTVSWNSGALTSGVHTFPAVLQSSGLYSLSSVVTVPSSSLGTKTYTCNVDHKPSNTKVDKRVESKYGPPCPPCPAPPVAGPSVFLFPPKPKDTLMISRTPEVTCVVVDVSQEDPEVQFNWYVDGVEVHNAKTKPREEQFNSTYRVVSVLTVLHQDWLNGKEYKCKVSNKGLPSSIEKTISKAKGQPREPQVYTLPPSQEEMTKNQVSLTCLVKGFYPSDIAVEWESNGQPENNYKTTPPVLDSDGSFFLYSRLTVDKSRWQEGNVFSCSVMHEALHNHYTQKSLSLSLGK
heavy 2: EVQLVESGGGLVQPGGSLRLSCAASGFTFGSYGMAWVRQAPGKGLEWVSAISGSGDYTNYADSVKRRFTISRDNSKNTLYLQMSSLRAEDTAVYYCAKEKTGTTGYLYSGMDVWGQGTTVTVSSASTKGPSVFPLAPCSRSTSESTAALGCLVKDYFPEPVTVSWNSGALTSGVHTFPAVLQSSGLYSLSSVVTVPSSSLGTKTYTCNVDHKPSNTKVDKRVESKYGPPCPPCPAPPVAGPSVFLFPPKPKDTLMISRTPEVTCVVVDVSQEDPEVQFNWYVDGVEVHNAKTKPREEQFNSTYRVVSVLTVLHQDWLNGKEYKCKVSNKGLPSSIEKTISKAKGQPREPQVYTLPPSQEEMTKNQVSLTCLVKGFYPSDIAVEWESNGQPENNYKTTPPVLDSDGSFFLYSRLTVDKSRWQEGNVFSCSVMHEALHNRFTQKSLSLSPGK
light: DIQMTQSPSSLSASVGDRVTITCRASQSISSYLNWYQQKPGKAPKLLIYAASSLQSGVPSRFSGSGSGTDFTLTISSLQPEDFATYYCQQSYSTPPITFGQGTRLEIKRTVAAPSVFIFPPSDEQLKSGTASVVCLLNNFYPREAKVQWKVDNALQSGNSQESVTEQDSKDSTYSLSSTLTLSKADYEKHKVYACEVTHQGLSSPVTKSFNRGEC
B2: REGN16432 (bispecific antibody, human IgG4 S228P, kappa)
heavy 1: EVQLVESGGGLVQPGGSLRLSCAASGFTFSSYAMNWVRQAPGKGLEWVSIISGTIGKTYYADSVKGRFTISRDNSKNTLYLQMNSLRGEDTAVYYCAKDTERDITGSPFDYWGQGTLVTVSSASTKGPSVFPLAPCSRSTSESTAALGCLVKDYFPEPVTVSWNSGALTSGVHTFPAVLQSSGLYSLSSVVTVPSSSLGTKTYTCNVDHKPSNTKVDKRVESKYGPPCPPCPAPPVAGPSVFLFPPKPKDTLMISRTPEVTCVVVDVSQEDPEVQFNWYVDGVEVHNAKTKPREEQFNSTYRVVSVLTVLHQDWLNGKEYKCKVSNKGLPSSIEKTISKAKGQPREPQVYTLPPSQEEMTKNQVSLTCLVKGFYPSDIAVEWESNGQPENNYKTTPPVLDSDGSFFLYSRLTVDKSRWQEGNVFSCSVMHEALHNHYTQKSLSLSLGK
heavy 2: B1 heavy 2
light: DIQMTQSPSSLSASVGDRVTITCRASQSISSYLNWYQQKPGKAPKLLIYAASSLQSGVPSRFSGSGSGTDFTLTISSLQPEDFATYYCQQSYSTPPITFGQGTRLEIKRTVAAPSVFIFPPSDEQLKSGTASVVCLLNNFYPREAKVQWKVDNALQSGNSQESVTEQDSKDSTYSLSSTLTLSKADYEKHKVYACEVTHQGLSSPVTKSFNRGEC
B3: REGN16335 (bispecific antibody, human IgG4 S228P, kappa)
heavy 1: B2 heavy 1 with P235G, V236G, A237G
heavy 2: B1 heavy 2 with P237G, V238G, A239G
light: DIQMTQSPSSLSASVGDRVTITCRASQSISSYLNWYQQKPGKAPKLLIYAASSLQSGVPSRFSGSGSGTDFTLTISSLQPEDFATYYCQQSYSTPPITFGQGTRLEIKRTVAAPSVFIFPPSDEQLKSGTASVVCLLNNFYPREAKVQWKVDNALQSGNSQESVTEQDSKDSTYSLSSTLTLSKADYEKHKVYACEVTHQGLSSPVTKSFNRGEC

Tests used:
[1] = target: T1, human CD40 expressed on cells (human, UniProt P25942 21-277); assay: cell-based or functional assay
[2] = target: T2, human CD40 extracellular domain expressed with a C-terminal myc-myc-hexahistidine tag (human); assay: SPR 37C, captured mAb
T2 construct: also called hCD40-MMH; hCD40-mmH
Description: (§1) The equilibrium dissociation constants (KD) for anti-CD40 bivalent and bispecific monoclonal antibodies (mAbs) were determined using a real-time surface plasmon resonance (SPR)-based Biacore 4000 biosensor. All binding studies were performed in 10 mM HEPES, 150 mM NaCl, 3 mM EDTA, and 0.05% v/v surfactant Tween-20, pH 7.4 (HBS-ET) running buffer at 25° C. and 37° C. The Biacore CM5 sensor surface was first derivatized by amine coupling with a monoclonal mouse anti-human Fc antibody (REGN2567) to capture anti-CD40 bivalent parental and anti-CD40×CD40 bispecific antibodies. Different concentrations of CD40 reagents, human CD40 extracellular domain expressed with a C-terminal myc-myc-hexahistidine tag (“hCD40-MMH”; REGN3094; SEQ ID NO: 53), monkey CD40 extracellular domain expressed with a C-terminal myc-myc-hexahistidine tag (“mfCD40-MMH”; REGN3097; SEQ ID NO: 54), and mouse CD40 extracellular domain expressed with a C-terminal myc-myc-hexahistidine tag (“mCD40-MMH”; REGN3098; SEQ ID NO: 55), at concentrations ranging from 3.7 nM to 100 nM or 3.3 nM to 90 nM in a series of 3-fold dilutions prepared in HBS-ET running buffer were injected at a flow rate of […] for 4 minutes or […] for 5 minutes. The dissociation of different CD40 reagents bound to anti-CD40 bivalent parental and anti-CD40×CD40 bispecific antibodies was monitored for 10 minutes in HBS-ET running buffer. At the end of each cycle, the anti-CD40 bivalent parental and anti-CD40×CD40 bispecific antibodies capture surface was regenerated using a 12 sec injection of 20 mM H₃PO₄.
(§2) The association rate (ka) and dissociation rate (kd) were determined by fitting the real-time binding sensorgrams to a 1:1 binding model with mass transport limitation using Scrubber 2.0c curve-fitting software. Binding dissociation equilibrium constant (KD) and dissociative half-life (t½) were calculated from the kinetic rates as: KD (M)=kd/kₐ, and t_{1/2} (min)=[ln(2)/(60*kd)].

[3] = target: T1, human CD40 expressed on cells; assay: cell-based or functional assay; remark: listed apart in the source
[4] = target: T1, human CD40 expressed on cells; assay: cell-based or functional assay; remark: listed apart in the source
[5] = target: T2, human CD40 extracellular domain …; assay: ELISA, blocks 40 nM hCD40-mmH binding to coated 9His-hCD40L
Description: In the blocking assay, 9His-hCD40L was passively absorbed at a concentration of 5 μg/mL in PBS on a 96-well microtiter plate overnight at 4° C. […] In a separate 96-well microtiter plate, a fixed amount of 40 nM hCD40-mmH was pre-mixed with one of the following antibodies, at concentrations ranging from 977 pM to 1 μM in PBS+0.5% BSA: (1) anti-CD40×CD40 bispecific antibodies (REGN16431, REGN16432, REGN16634, and REGN16335); (2) parental anti-CD40 mAbs (bivalent antibodies comprising 2 fragment antigen-binding [Fab] arms identical to one of anti-CD40 Fab of anti-CD40×CD40 antibodies); (3) anti-CD40×Irrelevant antibodies (bivalent antibodies that incorporate one Fab arm identical to one of anti-CD40 Fab of anti-CD40×CD40 antibodies and another Fab arm specific to an irrelevant antigen); and (4) human IgG4 with Fc mutation isotype control antibodies (REGN7540 and REGN4513). The fixed concentration of hCD40-mmH was selected to be near the concentration (EC₅₀ value) that generated 50% of the maximal binding to the plate-adhered 9His-hCD40L. After one-hour incubation, the antibody-antigen complexes were transferred to the microtiter plate coated with 9His-hCD40L. After one hour incubation at room temperature, the plates were washed, and plate-bound hCD40-mmH protein was detected with horseradish peroxidase (HRP) conjugated goat anti-c-Myc antibody. The plates were then developed using TMB substrate solution (BD Biosciences) according to the manufacturer's recommended procedure and the absorbance at 450 nm (OD₄₅₀) was measured on a SpectraMax i3× plate reader.
Binding data were analyzed using a sigmoidal (four-parameter logistic) dose-response model with GraphPad Prism™ software. […] The percent blocking of tested antibodies at the highest tested concentration ([…]) was calculated based on the formula shown below: […]

[6] = target: T1, human CD40 expressed on cells; assay: cell-based or functional assay; remark: listed apart in the source
[7] = target: T1, human CD40 expressed on cells; assay: cell-based or functional assay; remark: listed apart in the source
[8] = target: T1, human CD40 expressed on cells; assay: cell-based or functional assay; remark: listed apart in the source
[9] = target: T2, human CD40 extracellular domain …; assay: SPR 25C, captured mAb
Description: as §1, §2

[10] = target: T1, human CD40 expressed on cells; assay: cell-based or functional assay; remark: listed apart in the source
[11] = target: T1, human CD40 expressed on cells; assay: cell-based or functional assay; remark: listed apart in the source
[12] = target: T1, human CD40 expressed on cells; assay: cell-based or functional assay; remark: listed apart in the source

T2 sequence (chain, as listed by the source limits assumed): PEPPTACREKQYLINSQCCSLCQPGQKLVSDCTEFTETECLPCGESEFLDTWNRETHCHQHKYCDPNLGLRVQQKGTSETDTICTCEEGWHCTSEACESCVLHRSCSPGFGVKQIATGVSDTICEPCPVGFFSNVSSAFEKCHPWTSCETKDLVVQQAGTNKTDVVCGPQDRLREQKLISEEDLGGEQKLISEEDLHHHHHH
T1 sequence (P25942 21-277): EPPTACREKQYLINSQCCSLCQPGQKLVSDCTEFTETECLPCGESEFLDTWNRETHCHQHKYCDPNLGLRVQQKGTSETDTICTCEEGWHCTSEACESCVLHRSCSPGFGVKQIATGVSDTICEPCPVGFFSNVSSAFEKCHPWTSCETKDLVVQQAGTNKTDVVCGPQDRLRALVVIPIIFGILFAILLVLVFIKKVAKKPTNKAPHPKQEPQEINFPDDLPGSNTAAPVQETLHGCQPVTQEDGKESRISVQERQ

| % max blockade relative to no mAb, IL-6, B cells, donor 1 [1] | % max blockade relative to no mAb, IL-6, B cells, donor 2 [1] | % max blockade relative to no mAb, IL-6, B cells, donor 3 [1] | 100 nM Ag Bound (RU) [2] | IC50, NFkB-luc Ramos, 500 pM hCD40L [3] | Max % activation, NFkB-luc Ramos, no ligand [3] | Max % inhibition, NFkB-luc Ramos, 500 pM hCD40L [3] | IC50, NFkB-luc Raji, 900 pM hCD40L [4] | Max % activation, NFkB-luc Raji, no ligand [4] | Max % inhibition, NFkB-luc Raji, 900 pM hCD40L [4] | % Blocking at highest mAb concentration [5] | IC50, NFkB-luc THP-1, 10 nM hCD40L [6] | Max % activation, NFkB-luc THP-1, no ligand [6] | Max % inhibition, NFkB-luc THP-1, 10 nM hCD40L [6] | % max blockade relative to no mAb, TNFa, B cells, donor 1 [7] | % max blockade relative to no mAb, TNFa, B cells, donor 2 [7] | % max blockade relative to no mAb, TNFa, B cells, donor 3 [7] | % max blockade relative to no mAb, IL-10, B cells, donor 1 [8] | % max blockade relative to no mAb, IL-10, B cells, donor 2 [8] | % max blockade relative to no mAb, IL-10, B cells, donor 3 [8] | other results | Binder |
| --- | --- | --- | --- | --- | --- | --- | --- | --- | --- | --- | --- | --- | --- | --- | --- | --- | --- | --- | --- | --- | --- |
| 84% | 92.7% | 92.7% | 61.2 RU | 8.54e-11 M | 6% | 90% | 1.07e-10 M | 13% | 82% | 93% | 0.287 nM | 2% | 98% | 44.7% | 74.1% | 70.4% | 80.7% | 86.9% | 89.3% | 100 nM Ag Bound (RU) [9]: 61.2 RU | B1 |
| 83.5% | 92% | 92% | 56.6 RU | 4.92e-11 M | 4% | 94% | 1.02e-10 M | 5% | 68% | 95% | 0.148 nM | 6% | 97% | 53.5% | 68.4% | 69.1% | 81.5% | 94.5% | 90.6% | 100 nM Ag Bound (RU) [9]: 56.6 RU | B2 |
| 83.2% | 91.4% | 91.4% |  | 3.86e-11 M | 5% | 93% | 4.94e-11 M | 9% | 102% | 96% | 0.221 nM | 3% | 98% | 45% | 64.7% | 61.6% | 78.5% | 93.6% | 89.8% | % max blockade relative to no mAb, IL-6, assay #2, donor 1 [10]: 88.4%; % max blockade relative to no mAb, IL-6, assay #2, donor 2 [10]: 87%; % max blockade relative to no mAb, IL-10, assay #2, donor 1 [11]: 88.5%; % max blockade relative to no mAb, IL-10, assay #2, donor 2 [11]: 87.8%; % max blockade relative to no mAb, TNFa, assay #2, donor 1 [12]: 62.4%; % max blockade relative to no mAb, TNFa, assay #2, donor 2 [12]: 52.5% | B3 |
